The DeepSol protein solubility set

Assay: soluble on expression in E. coli; label from the status in PepcDB or PDB records

Sequence | soluble on expression in E. coli
MGSDKIHHHHHHMNYLVISPFYPENFQPFTIELAKKEGVTVLGIGQEPYDQLPEELRNALTEYFRVEDLENIDEVKRAAAFLIYKHGPIDRVESHNEYWLENDAALREQFNIFGAKPKHLKKTKFKSEMKKYFKKAGVPVVPGVVVKSERDFGRALKNVGFPMIAKPDNGVGASGTFKIENKEDFDRFVETWDGATIYFLEKFVNSSIITTYDGLLDHEGNVVFETGLTYVHTPLELMLSRKDNAYFIEKELDPQLVKYGRAIIKAFGMRERFFHIEFFKDGDDYIAIEYNNRMAGGFTVEAYNYAHSIDLFRDYANVATGGTVEERRFEPQYCLVATRRDTTEYVHSADDIHQKFAGKIKTVKRMPDAFAELQGNDAYLLVTESKKELDEMIAYIGLTK | not soluble
MQEGYREYRDIHARLNLPLLETGALVAAWSDEDLARLPAIVEQAHGNGVDDVRQVGRDEVLALEPQLAGNVLGAVRVPGEHLVDPWSAPLAYLQQALAHGAEACFDVEVLDGAFDGGEWLLHTRRGDLRASQVINCAGLFGDQLEQRLLGAASFAIHPRKGQFVVFDKAAAALLRHILLPVPNERTKGVVFTRTVFGNLLAGPTAEEQDDREQARVDSDTLQRLIDAAVERIPGLRGMPVTATYAGLRPASEKKEYRIRQVDGRNWISVGGIRSTGLTAALGIARHVYRLYQGERFHEAVREPLWPQVPNLAEHLPRDWQRPGYDEIVCHCEMVTRREILAALEGPLPAGDFGGLKRRTRACMGRCQGFYCNARVAELSAGRLAQPLATGSCHEHH | not soluble
MGSDKIHHHHHHMAYEQFAYVYDELMQDVPYPEWVAWVLEQVEPGKRIADIGCGTGTATLLLADHYEVTGVDLSEEMLEIAQEKAMETNRHVDFWVQDMRELELPEPVDAITILCDSLNYLQTEADVKQTFDSAARLLTDGGKLLFDVHSPYKMETLFNGKTYATHAEQSSYIWFADPGEEPLSVVHELTFFIEGEDGRYDRVDETHHQRTYPPEQYITWLREAGFRVCAVTGDFKSDAPTETAERIFFVAEKI | not soluble
MNAFNLIIIGDEILHGSSQDKHFAFFKSLLESKGLKLNQVQYLPDEPDLLVRQLRRSFSDGMPTFVTGGIGATPDDHTRQAAAAALDLPVVRHSEAAKFIEGITQKRGEPLDSPEHAQRLKMADFPEGAELVPNPFNNIAGFSIREHYFFPGFPVMAHPMAEWVLETYYADRFNQTERGSRSVYVFEQPESRITPLMEHIEQTYPGVRSYSLPSVGWTHSDGTQVKPHIEFGIKAEGEAVNLLDAAWAEVLHSLDGLGAELKNRVN | not soluble
MFFSHETILLICYNMLTLSKKISRIASEMIMKTKLIVVAGPTAVGKTALGIELAERFNGEIISGDSQQVYRQLNIGTAKATPEEQAAAVHHLIDVRDVDESYSAYDFVTEAQAAITDIVSRGKLPIIVGGTGLYLQSLLEGYHLGGKVDQNQVLAYRSELEQLSDQQLFEKIDSLGIEIKEINRRRAIRALELYRFSDNLENTETCYEPFIIGLDDERSLIYDRINTRVDKMVELGLLEEAKWLYDNFPEAQSARGIGYKELFPYFSGEQTLDEALEKLKQNTRRFAKRQLTWFRNRMTVSFYQISSPEYPENVIQDLAIFLNEEEGEKLEHHHHHH | soluble
MAHHHHHHMPAVKQHLTGKASAAMRPTPSDAGAVLEPLTVRPSRVTTTTDHLTTSSAISTISVDTIRECGSAEDAYEAGKELGGVGPVFTGVAVPAEHPVAAAMPADAAELRHEEELKVIMCRYRPQSTEN | soluble
MGSDKIHHHHHHMIRKFVNRKRELEVLEKARLFVVHGRRRVGKTALLRKFLENKRYEKDVEGFSQEISSFINAPVRFESSRDAFKFLREQGKLIVILDEFPYLIEADKGIVSEFQEIVDVMLDNSDVTLILCGSSVGMMEREVPSYKSPLYGRAGGILKVQPFRFFDMVEWFGKDFERLLRIYDVTWGIPKYMEFFRTGSDEEIIANFFDPSAFLFNEARLLLLEELRNPSRYMQIIEAITLWKTRLNEIAQYTGIEPKDLPSYLRVLSNLGIIKREVPITERKGKRWVYVIEDEYFRFYHRFVSPHYEEIESLNPEPAIEDFRKNFNAYLGRTFEKVSREFLTRVIKPSKVGRWWHKGEEIDIVALKGEERKALLVEVKWKELSEKEARRILKDLEHKGELIGMEKWKRCYGLIAKKIENKESIKGEGFFLWDLKDFKSEMI | not soluble
AHHHHHHGSKAPICEVCLKTEDILCPADEKKLEEGIITELDVKISRMLYKLLGDADVEFKKAVEAGDLIVLIVGEGDVPIVIGKGGKNIKYLTRELGKRVRVIESTDDVKKLAVDLLYPAGVFGVNVVYKPDGGQYYKVLVFSRDKSKLPEKSEVLESILTQITGVETKISFI | soluble
MPVKRSLKLDGLLEENSFDPSKITRKKSVITYSPTTGTCQMSLFASPTSSEEQKHRNGLSNEKRKKLNHPSLTESKESTTKDNDEFMMLLSKVEKLSEEIMEIMQNLSSIQALEGSRELENLIGISCASHFLKREMQKTKELMTKVNKQKLFEKSTGLPHKGQPQMSQPLLEHHHHHH | soluble
METYTVKLGSDKGLLVFEPAKLTIKPGDTVEFLNNKVPPHNVVFDAALNPAKSADLAKSLSHKQLLMSPGQSTSTTFPADAPAGEYTFYCEPHRGAGMVGKITVAG | soluble
MSEIPTEVPVKTRKRTYDLKFKLHAINYALEHKNISKAAKDLNVNRQNIQQWIAQKAEIEKQLEDNGSTATKRLSGGGRPLKYDDVDKELIKWVHDQRKEKQRVTRRIIGETAKKISQNSDFKASRGWLDKFMCRHNLSTRRARTEPGDLMQTLVDILLRQTSSDDGEEDPMISFIKSCIPSGEDPLEGEDQAASSSVQVPKVLAEENGHESDSDQSIVDVND | not soluble
MAKIKLPIVTINAKGGAQYVVEGVEAVNALTQLENYPERGIRIKVDGKMTVITEGCLCSAAVTGEVEVDVPEIVCEEVECEPISNILPNPKNPTDPGENSKPEEKAGEK | not soluble
MAHHHHHHMSCITGITYLSSADINALSKGAGAGSSSGSRGTFVVREGDYVTGTITNVQGGSTPGIRLATSRGVTAFIAAVDICDEAMRVDLLEYIRRSEQLRDWNRHENGDARPPERAEAPVWLRRGALLQGTVSRCVWARCELHLQWCRPREELAGSGDDNGEKETAMPSYGNMERGGASSSVNSLNTAQVEQQVRVFATKMSRHPLFRDVSKNGAADMLRDKEIGESLLRPRTASVHRVVCEVKVGSNATNHWVISEERHANGQFYYKVEDRVVDRQWEFTDVDDFLCNFVEPMVKLIQSIRVHRRFEDSTEYVQAALDAQREVSGGFAYAFAETESKRHLYQVYSSGGNETYHFPLHITSEFIYIRLPFFHDGKASNKWVPCKSAEKVSETVKNYARAMSKRSVNGELH | soluble
DAARRGGAAGGGGPRSPRRSGPLGPHACPPALPEPKVTSTMSSQVVGIEPLYIKAEPASPDSPKGSSETETEPPVTLASGPAPARCLPGHKEEEDGEGAGSGEQGSGKLVLSSLPKRLCLVCGDVASGYHYGVASCEACKAFFKRTIQGSIEYSCPASNECEITKRRRKACQACRFTKCLRVGMLKEGVRLDRVRGGRQKYKRRPEVDPLPFPGPFPAGPLAVAGGPRKTAPVNALVSHLLVVEPEKLYAMPDPASPDGHLPAVATLCDLFDREIVVTISWAKSIPGFSSLSLSDQMSVLQSVWMEVLVLGVAQRSLPLQDELAFAEDLVLDEEGARAAGLGDLGAALLQLVRRLQALRLEREEYVLLKALALANSDSVHIEDAEAVEQLREALHEALLEYEAGRAGPGGGAERRRAGRLPCTLPLLRQTAGKVLAHFYGVKLEGKVPMHKLFLEMLEAMMD | soluble
MQENSPLLQLQNVGYLAGDAKILNNINFSLRAGEFKLITGPSGCGKSTLLKIVASLISPTSGTLLFEGEDVSTLKPEIYRQQVSYCAQTPTLFGDTVYDNLIFPWQIRNRQPDPAIFLDFLERFALPDSILTKNIAELSGGEKQRISLIRNLQFMPKVLLLDEITSALDESNKHNVNEMIHRYVREQNIAVLWVTHDKDEINHADKVITLQPHAGEMQEARYELA | not soluble
MLRSLLKSRQVICGLRELRALSTSQGNESIIDFVDTVTETSEAQNQSFASLLRNSKFMQLGDFNGRLVVGKIAQRVQEDVYIDFGLKFNAVCKVPALNSEAYRSGARVLIRLIDPELSERFLGSKHDLTLLEADAVLVRLLSNVPRQQQQRQKPRGATEEEAPAAPETPAAH | not soluble
MGSDKIHHHHHHMPYSSKEEAAQGWADIIARARSCSAGAARKAVAQLGRRDLFFLLTRLLGREEMFNDWCFARCAEVQRQPDGMLDLWAREHYKSTIITFGQSIRDILNDPEITIGIFSHSRPVAKGFLAQIKHEFEQNHALKTLYPDVLYSDPKRQSPRWSLDGGLVVRRSTNPKEATVEAWGLVDGQPTGKHFRLLVYDDVVTRESVTSPEMIAKVTECWALSLNLGARGGACRTIGTRYHYNDTYKTMMDRKAAEPRIHAATADGTPDGPSVFLPQNELADKRRRMGPFVFGCQMLQNPVADRMQGFREEWLRWWQPGAASWQAMNRYILVDPAASRKEQADWTVMLVVGLGADGNYYLIDGIRDRLNLTGRAGALFRLHRTYRPLAVGYEQYGMQADIEYMHTEMDRRNHRFDITPLAGRLAKADRIRRLVPLFEGGRVYLPRVCPFTDSEGRQRDLSRELVTEEYLAFPVCGHDDMLDCLARITDSALGAHPAVDSNAQYESTANMEYPLWT | not soluble
MSLKLEIIAIGGYEEVGRNMTAVNVDGEIIILDMGIRLDRVLIHEDTDISKLHSLELIEKGIIPNDTVMKNIEGEVKAIVLSHGHLDHIGAVPKLAHRYNAPIIGTPYTIELVKREILSEKKFDVRNPLIVLNAGESIDLTPNITLEFIRITHSIPDSVLPVLHTPYGSIVYGNDFKFDNFPVVGERPDYRAIKKVGKNGVLCFISETTRINHEGKTPPEIIASGLLKNDLLAADNDKHGIIVTTFSSHIARIKSITDIAEKMGRTPVLLGRSMMRFCGIAQDIGLVKFPEDLRIYGDPSSIEMALKNIVKEGKEKYLIIATGHQGEEGAVLSRMATNKTPYKFEKYDCVVFSADPIPNPMNAAQRYMLESRLKLLGVRIFKGAHVSGHAAKEDHRDMLRWLNPEHIIPSHGDFNLTAEYTKLAEEEGYRLGEDVHLLRNGQCLSFEREGHHHHHH | soluble
MGHHHHHHSHEHCAIILEDDRSDISSTCANNINHNTELLPIELDTLVGKGRFAEVYKAKLKQNTSEQFETVAVKIFPYEEYASWKTEKDIFSDINLKHENILQFLTAEERKTELGKQYWLITAFHAKGNLQEYLTRHVISWEDLRKLGSSLARGIAHLHSDHTPCGRPKMPIVHRDLKSSNILVKNDLTCCLCDFGLSLRLDPTLSVDDLANSGQVGTARYMAPEVLESRMNLENAESFKQTDVYSMALVLWEMTSRCNAVGEVKDYEPPFGSKVREHPCVESMKDNVLRDRGRPEIPSFWLNHQGIQMVCETLTECWDHDPEARLTAQCVAERFSELEHLDRLSGRSCSEEKIPEDGSLNTTK | not soluble
MGSDKIHHHHHHMKETSWDDYKIAYQVALDGSLSRAGVSLRINHATVLRRINQLEQALEVKLFIRHQRGYKLTDAGCVLMDEMPEMLAKFSSLENKLQNVEGDISGELRITTVSSFSPVITPALKAFRAKYPKIRLKLISTDDIVPLDSGAAHVSLRAGPSPVGVDLVVKNLIKLETAYHATQDYIDEFGQPKTINEFNDHQWVLPTPEKYRIPFVNYIVDKIDKNRIVFQSNNFSDIHDAVIAGMGIGPLSDHQASLNPSMVKIDLDIPKNGESIWFVYHKDLKHSARIQSFYHFLKAALSDIEQEHLRISDSKTNKD | not soluble
KLFEHTVLYDSGDAFFELKGNASMKLSPKAAIEVCNEAAKKGLWILGIDGGHWLNPGFRIDSSASWTYDMPEEYKSKIPENNRLAIENIKDDIENGYTAFIITLKM | soluble
QPSLLDRLVDDEPWRRSEAPEAALLTHAGLRAAVLRDLRWLLNTVNLASSQDLAPYRHVPASSVNFGVRAMAGRRMSEIDWVDVETSIRDAIAAFEPRILESSVEVRCVSDTRTLEHHNVLSLEIRGMLWCVPHPREFLFRTDIDLE | not soluble
